± gives the uncertainty stated by the source.
experiment: protein stability index of a GFP-peptide fusion (yeast GPS) (PSI 1-4); higher = more stable; sorted into four equal gates, so the index is relative within each strain; details: san1∆
Outline: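 Yeast carrying a pooled library were grown to mid-log phase in leucine-free medium. Each library plasmid expresses Cherry and has a tiled 17-residue yeast protein peptide fused downstream of GFP. Cells were sorted into four equal gates by GFP/Cherry ratio, and plasmids from each gate were PCR-amplified, Illumina-sequenced and assigned to strains by barcode. Summing, across gates, the read frequency times the gate number gave each peptide's protein stability index.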

Row | Sequence | protein stability index
1 | ENDNLDNVSKNALDKLR [YCG1] | 3.08 ± 0.08
2 | ENELVITSIPKPLTENC [RMP1] | 3.39 ± 0.066
3 | ENENILIKAKNFLVFQG [SMC1] | 1.96 ± 0.22
4 | ENIIQRLQAANSMEYTG [CDC53] | 2.25 ± 0.18
5 | ENIPVALCKNRKCQFRT [POP1] | 2.32 ± 0.079
6 | ENITNKVTEKVLTQLTA [CSI1] | 2.4 ± 0.041
7 | ENLEESFLSKHALYLAP [SSN2] | 3.26 ± 0.044
8 | ENSANSTVASALDTNGT [SIR4] | 2.79 ± 0.09
9 | ENVEKKEAALKTMIKTI [SMC2] | 1.73 ± 0.09
10 | EPAEANEENDLDVDPAK [RPB2] | 3.17 ± 0.13
11 | EPDRDENWIHVSCLSFM [LIN1] | 3.08 ± 0.042
12 | EPFFLVTKITDMLLHKY [SRB8] | 2.88 ± 0.061
13 | EPIKVNVRVGQAVETVG [RPN1] | 2.47 ± 0.11
14 | EPLAPGNDNLIKAPTVA [YLR335W/NUP2] | 2.53 ± 0.053
15 | EPLTEIKNVIVSNRVAA [RPP0] | 1.77 ± 0.11
16 | EPMKQLNATKISPSAPS [YAR002W/NUP60] | 2.96 ± 0.062
17 | EPSDLRSWTLTSEMKVL [YGL100W/SEH1] | 3.16 ± 0.052
18 | EPYVAYGYPSYSTIRQL [RPL7A] | 2.14 ± 0.058
19 | EQDILDLIAEQVVTDYN [SSN2] | 3.08 ± 0.18
20 | EQDPYSNASQMGNTGSG [RPB3] | 2.21 ± 0.2
21 | EQGIELEHIDSKSEFAH [FAS2] | 3.08 ± 0.13
22 | EQRHLKRELKRAQEEVK [RPT3] | 2.95 ± 0.089
23 | ERAELETDEYISYTSHI [RPN1] | 3.01 ± 0.065
24 | ERNEQEREIMNDHSKSA [SWI3] | 3.1 ± 0.092
25 | ERPPLLPILPIQRLRLL [YOR098C/NUP1] | 1.95 ± 0.18
26 | ERQQENLLIQRLNFNQN [SWI3] | 3.2 ± 0.042

Row | Sequence | protein stability index
27 | ERRMQVTAEDFKQAKER [RPT2] | 3 ± 0.088
28 | ERSLAVKYINFGKTVKD [RPC31] | 2.99 ± 0.046
29 | ERSLRQKYNLLHVLPTL [SNM1] | 2.03 ± 0.28
30 | ERTKLQEHTIFTQLKKN [SNU114] | 1.97 ± 0.084
31 | ESAAVYNGRGARERKTA [SNF2] | 2.76 ± 0.06
32 | ESELSLLEETQAKLKKN [SMC4] | 2.88 ± 0.23
33 | ESFESYHNLTTHNSYEK [RPN6] | 2.84 ± 0.075
34 | ESGEDEAEFSLRELSCC [RRP46] | 3.2 ± 0.064
35 | ESGLRPVSLLNSQLVGK [PCI8] | 3.27 ± 0.061
36 | ESGLVNADLDVKDELMF [RPO21] | 3.23 ± 0.059
37 | ESISQTPISNEQTEGEP [SRP68] | 3.16 ± 0.071
38 | ESLQKRELLKSQVEDFT [SIR3] | 3.12 ± 0.048
39 | ESLSEEHASLLVRDSKP [MED8] | 2.69 ± 0.086
40 | ESNNKKYPIFTGESWVK [YDL088C/ASM4] | 2.33 ± 0.083
41 | ETDGKHGKRRSQVVETH [YMR129W/POM152] | 3.21 ± 0.056
42 | ETEKFALERNWPIVNSK [RPN12] | 3.13 ± 0.069
43 | ETHPDNSNKQAVAILAD [BRR2] | 2.81 ± 0.045
44 | ETIQADLNHVTEELQTQ [SMC2] | 3.02 ± 0.066
45 | ETLGDILKRDFELVSDL [ECM29] | 2.95 ± 0.22
46 | ETLNDTIERSLIEEEVE [YCS4] | 3.31 ± 0.056
47 | ETPKSNNSLSYHSGRLL [ITC1] | 2.63 ± 0.13
48 | ETPNQDATYDSALELVG [RPN6] | 2.61 ± 0.081
49 | ETQPGCNEEQTLEAKIG [RPO31] | 2.96 ± 0.057
50 | ETSSFGSMFSGDNTSDV [RRI1] | 3.25 ± 0.063
51 | ETTTQFKATHILDFGPG [FAS1] | 2.16 ± 0.084
52 | ETYVASYVVPRLYLKDQ [ECM29] | 1.91 ± 0.24

Row | Sequence | protein stability index
53 | EVCAKMPNIELYLKVIP [SSN2] | 2.48 ± 0.052
54 | EVDSASDFISKLEYPHT [RPN3] | 2.93 ± 0.075
55 | EVEEDDEDDDQPMISPD [SWI3] | 3.33 ± 0.046
56 | EVGMKVQSGQIYINKSV [RET1] | 2.6 ± 0.082
57 | EVLCSRIIEKSVRRSGA [RRP45] | 2.41 ± 0.1
58 | EVLLAGFGRKGKAKGDI [RPS23A] | 3.41 ± 0.045
59 | EVRDATLNNIFRFDSIQ [GRR1] | 3.38 ± 0.2
60 | EVRILPRQRMEEVVSND [PRP8] | 2.69 ± 0.064
61 | EVRQETQPKAEATQDDD [NUT1] | 3.4 ± 0.065
62 | EVSMNSIFAMGLCGAGT [RPN1] | 1.49 ± 0.091
63 | EVVSEAINIMNRSNDAL [FAS2] | 3.44 ± 0.049
64 | EVWSVSWNLTGTILSSA [YGL100W/SEH1] | 1.33 ± 0.15
65 | EVYRTSLNTKKNEKLIL [SMC3] | 2.73 ± 0.13
66 | EVYTLVDSQGLPYNWDA [ARP7] | 2.85 ± 0.14
67 | EWDMLNVEEEQIVPYIE [BRR2] | 3.02 ± 0.24
68 | EWKSNHKKKRSNAAGAD [SRB8] | 1.5 ± 0.17
69 | EYEEWQKSVSLLSSESN [YDL116W/NUP84] | 2.84 ± 0.053
70 | FCGKKTVKRGAAGIWTC [RPL43A] | 2.19 ± 0.11
71 | FDDACNQIWNIALNLAS [SSN2] | 2.91 ± 0.2
72 | FDDIFQVSEVDPGRYNK [RPB8] | 2.57 ± 0.18
73 | FDKDLERDTFSDFTFPE [DIS3] | 1.24 ± 0.17
74 | FDKKSFFNGKALNNAIP [PRP8] | 1.98 ± 0.15
75 | FDNKSTSEEQEALLRSL [SNF2] | 2.68 ± 0.26
76 | FEGNVATKAINGCIFTL [PRP8] | 1.97 ± 0.053
77 | FEIDGDVIHFEDSSILQ [PCI8] | 3.04 ± 0.066
78 | FELIELVTPKSFLFDVL [NUT1] | 1.08 ± 0.16

Row | Sequence | protein stability index
79 | FERIMILDPQVTRFTTW [YJL039C/NUP192] | 1.22 ± 0.12
80 | FESSSSLPFLLRHMPLA [SSN2] | 2.76 ± 0.18
81 | FETETEVTFKNANIFSS [FAS1] | 3.35 ± 0.046
82 | FEWDISNSDNCPEEFAE [SNF5] | 3.11 ± 0.1
83 | FEYEGVQDIIGNGKLSE [RPN1] | 3.21 ± 0.26
84 | FFEMLISKSLTFSQESG [RRI2] | 1.25 ± 0.12
85 | FFLRDTLLWNKNDKLIK [SNF5] | 2.06 ± 0.067
86 | FFLSIYFFYASRPEYSC [YJL039C/NUP192] | 1.19 ± 0.11
87 | FFTIDHFIQKLHTARKI [SIR2] | 1.11 ± 0.12
88 | FFYNISSIHWNNWFSLP [SIN4] | 2.03 ± 0.05
89 | FGHIDLAKPVFHVGFIA [RPO21] | 2.73 ± 0.052
90 | FGIYILTQGINGKEVPL [MED1] | 2.43 ± 0.14
91 | FGKTGDQKETKKGESEK [YOR098C/NUP1] | 3.45 ± 0.076
92 | FHIACSVGNLEVVKSLY [NAS6] | 2.45 ± 0.056
93 | FHIGYFKATIQILQGIC [RPO31] | 1.72 ± 0.062
94 | FILTIATAFLGYCCVYG [COB] | 1.22 ± 0.22
95 | FISELCSIEPIAAKLIN [YML103C/NUP188] | 1.44 ± 0.077
96 | FITKHLPLLILENSSRS [NUT1] | 1.12 ± 0.2
97 | FKATIQILQGICKNCSA [RPO31] | 1.76 ± 0.061
98 | FKCQEKDKGVYVVTSDE [SIR2] | 3.27 ± 0.072
99 | FKDVEHISFNFSMLQMA [BRR2] | 2.33 ± 0.15
100 | FKGLETPLKARQREMAE [YLR018C/POM34] | 2.91 ± 0.088
101 | FKKQMQTIMKMGPLSNI [SRP54] | 3.03 ± 0.1
102 | FKLFNKYRPETAAEKKE [RPL8A] | 2.5 ± 0.083
103 | FKRDLLREKEDKKNSSD [YJL039C/NUP192] | 3.23 ± 0.064

same assay, conditions: ubr1∆

Row | Sequence | protein stability index
104 | ENDNLDNVSKNALDKLR [YCG1] | 3.26 ± 0.1

Source: the supplement of paper PMC9732359
